Reference: PMC3293223 (Biochemistry, 2012)

Experiments:
[1] = biological target: thioredoxin mutant including only C32 (TRXC32) (UniProt P10599); test: cross-linking
SEC = biological target: the molecule itself; test: SEC

| stoichiometry N [1] | Molecule | binding result (SEC) |
| --- | --- | --- |
| 2 | thioredoxin mutant including only C32 (TRXC32) (from UniProt P10599 1-105) (enzyme) |  |
|  | N-terminally truncated APE1 including only Cys 99 with all other Cys residues mutated to Ala (40APE1 C99) (domain or fragment, human, UniProt P27695 41-318, looked up, Cys 99 oxidised with 1 mM diamide before the reaction with TRXC32) GPALYEDPPDQKTSPSGKPATLKIASWNVDGLRAWIKKKGLDWVKEEAPDILALQETKCSENKLPAELQELPGLSHQYWSAPSDKEGYSGVGLLSRQAPLKVSYGIGDEEHDQEGRVIVAEFDSFVLVTAYVPNAGRGLVRLEYRQRWDEAFRKFLKGLASRKPLVLAGDLNVAHEEIDLRNPKGNKKNAGFTPQERQGFGELLQAVPLADSFRHLYPNTPYAYTFWTYMMNARSKNVGWRLDYFLLSHSLLPALADSKIRSKALGSDHAPITLYLAL | binds |
